Reference: the DeepSol protein solubility set

assay: soluble on expression in E. coli; label from the status in PepcDB or PDB records

Sequence | soluble on expression in E. coli
SAAHQMDSITYSNNVTQQYIQPQSLQDISAVEDEIQNKIEAARQESKQLHAQINKAKHKIQDASLFQMANKVTSLTKNKINLKPNIVLKGHNNKISDFRWSRDSKRILSASQDGFMLIWDSASGLKQNAIPLDSQWVLSCAISPSSTLVASAGLNNNCTIYRVSKENRVAQNVASIFKGHTCYISDIEFTDNAHILTASGDMTCALWDIPKAKRVREYSDHLGDVLALAIPEEPNSENSSNTFASCGSDGYTYIWDSRSPSAVQSFYVNDSDINALRFFKDGMSIVAGSDNGAINMYDLRSDCSIATFSLFRGYEERTPTPTYMAANMEYNTAQSPQTLKSTSSSYLDNQGVVSLDFSASGRLMYSCYTDIGCVVWDVLKGEIVGKLEGHGGRVTGVRSSPDGLAVCTGSWDSTMKIWSPGYQ | not soluble
SAKFVIAGRADCPYYAKTELVADYLQKNLPDFRIHKITQRPEVWEDWLKDVCEKNKWSHKNSPIIWRELLDRGGKGLLLGGYNEFLEHAQLYYDVTSSMTTELMMVIAQENLGAHIEKEQEEEALKTCINPLQVWITSEWVKREFVAILKNLTTTGRQFGGILAAHSIATTLKYWYHGSPPGEIVSLGILSEGQFGIPKGIVFSMPVKFENGTWVVLTDLKDVEISEQIMTRMTSDLIQEKLVALGDKIHFQPYQSDTPRTNTLHPSIQSSWHSVLTITIRKR | soluble
SAMRQTPLTCSGHTRPVVDLAFSGITPYGYFLISACKDGKPMLRQGDTGDWIGTFLGHKGAVWGATLNTEATKAATAAADFTAKVWDAVTGDEVLTLAHKHIVKSVNFTQDSNYLLTGGNDKVLRIYDLSKPEAEPQEIAGHTSAIKKALWCNNDQQILSAADDKTIRLWDKNTNEAVKTLSFDASVSSMEYIPDGETLVITYGRTIAFYNAHSLDLIKTVDAPASIHSASLHPDKDFFVAGGDDFKLYKYDYTTKEEMESYKGHFGPVHCVRFSPDGELYASGSEDGTLRLWQTAVGKTYGLWKCVLPEELSSENSEALYCPPAEIKA | soluble
SAQKPKVDPHVGRLGYLQALVTEFQETQSQDAKEQVLANLANFAYDPSNYEYLRQLQVLDLFLDSLSEENETLVEFAIGGLCNLCPDRANKEHILHAGGVPLIINCLSSPNEETVLSAITTLMHLSPPGRSFLPELTATPVVQCMLRFSLSASARLRNLAQIFLEDFCSPRQVAEARSRQAHSALGIPLPRSVAPRQR | soluble
SASGYQFGSVDQVEGGSVQYTRKYLGTGNLNDLYVGIGATPFKNFSIGANASSLFGRFTHSRQVIFSTEAPYNPVHLSTLYLKAAKFDFGMQYHLLLKSDRSLVIGAVYSPRVKMHSELTQIKNQVQNGVVVESETQEYIKGMDYYTLPHTLGIGFSYEKKDKLLLGADVQYSKWKGEKFYKSDCKFQDRIRVSLGGEIIPDINAVGMWPKVRYRFGLHGENSYLKVPTKGGV | not soluble
SASNYPAYMDNYLKEVINQVEEETGYNLLTTGMDVYTNVDQEAQKHLWDIYNTDEYVAYPDDELQVASTIVDVSNGKVIAQLGARHQSSNVSFGINQAVETNRDWGSTMKPITDYAPALEYGVYDSTATIVHDEPYNYPGTNTPVYNWDRGYFGNITLQYALQQSRNVPAVETLNKVGLNRAKTFLNGLGIDYPSIHYSNAISSNTTESDKKYGASSEKMAAAYAAFANGGTYYKPMYIHKVVFSDGSEKEFSNVGTRAMKETTAYMMTDMMKTVLSYGTGQNAYLAWLPQAGKTGTSNYTDEEIENHIKTSQFVAPDELFAGYTRKYSMAVWTGYSNRLTPLVGNGLTVAAKVYRSMMTYLSEGSNPEDWNIPEGLYRNGEFVFKNGAR | soluble
SASSDLEQLCSHVNEKIGNIKKTLSLRNCGQEPTLKTVLNKIGDEIIVINELLNKLELEIQYQEQTNNSLKELCESLEEDYKDIEHLKENVPSHLPQVTVTQSCVKGSDLDPEEPIKVEEPEPVKKPPKEQRSIKEMPFITCDEFNGVPSYMKSRLTYNQINDVIKEINKAVISKYKILHQPKKSMNSVTRNLYHRFIDEETKDTKGRYFIVEADIKEFTTLKADKKFHVLLNILRHCRRLSEVRGGGLTRYVIT | soluble
SATLLHDAVMNPAEVVKQRLQMYNSQHQSAFSCIRTVWRTEGLGAFYRSYTTQLTMNIPFQSIHFITYEFLQEQVNPRRDYNPQSHIISGGLAGALAAAATTPLDVCKTLLNTQENMALSLANVSGRLSGMANAFRTVYQLNGLAGYFKGIQARVIYQMPSTAISWSVYEFFKYILTKRQLENRTLY | soluble
SDAILNYRPEGSEDYYALLGCDELSSVEQILAEFKIRALECHPDKHPENSKAVETFQKLQKAKEILCNAESRARYDHWRRSQMSMPFEQWEALADSVKTSMHWAVRSKKDLMLEGSGQTFTSSVPNKERSEQRETKKGDPDSNPEKMKQKEPKFPEEGISPQNPDSPGLSDLNCGHLRFRWSGDAPSELLRKFRNYEI | soluble
SDPEISEQDEEKKKYTSVCVGREEDIRKSERMTAVVHDREVVIFYHKGEYHAMDIRCYHSGGPLHLGEIEDFNGQSCIVCPWHKYKITLATGEGLYQSINPKDPSAKPKWCSKGVKQRIHTVKVDNGNIYVTLSKEPFKCDSDYYATGEFKVIQSSS | soluble
SDTGVIEGGLNVTLTIRLLMHGKEVGSIIGKKGESVKKMREESGARINISEGNCPERIITLAGPTNAIFKAFAMIIDKLEEDISSSMTNSTAASRPPVTLRLVVPASQCGSLIGKGGCKIKEIRESTGAQVQVAGDMLPNSTERAITIAGIPQSIIECVKQICVVMLETLSQSPPKGVTIPYRPKPSSSPVIFAGGQDRYSTGSDSASFPHTTPSMCLNPDLEGPPLEAYTIQGQYAIPQPDLTKLHQLAMQQSHFPMTHGNTGFSGIESSSPEVKGYWAGLDASAQTTSHELTIPNDLIGCIIGRQGAKINEIRQMSGAQIKIANPVEGSTDRQVTITGSAASISLAQYLINVRLSSETGGMGSS | soluble
SEDNQRSRFRKICVFCGSHSGHREVFSDAAIELGNELVKRKIDLVYGGGSVGLMGLISRRVYEGGLHVLGIIPKALMPIEISGETVGDVRVVADMHERKAAMAQEAEAFIALPGGYGTMEELLEMITWSQLGIHKKTVGLLNVDGYYNNLLALFDTGVEEGFIKPGARNIVVSAPTAKELMEKMEEYTPSHMHVASHESWKVEELGDYPGQENKPQ | soluble
SEEDAGNGGFRKRMRASDEEGKGDSRDGISLDHTIENEEAETKLVASDEMELSIAQILDKIESFTQTVSNLLETGKTMLKELSNEFEERLIMIHKEHVEKWQDEIKELRLLDASNEETTSLLHNARYLIQNPSIEQ | soluble
SESLVVCDVAEDLVEKLRKFRFRKETHNAAIIMKIDKDERLVVLDEELEGVSPDELKDELPERQPRFIVYSYKYQHDDGRVSYPLCFIFSSPVGCKPEQQMMYAGSKNKLVQTAELTKVFEIRNTEDLTEEWLREKLG | soluble
SFAKTGQLFNQTHLEEKKEIAQKAIQFIQEGDSIILDSGSTTTEIAKLLMNYKDLTVITNALNIALILGENHGINLIVTGGEFKAPTLSLTGKMAADSFKDIRANKLFLATAGISSDMKLTYPSLSDLVVKSAMIESASKVYLVADCSKI | not soluble
SFPGDYDNYLLEKEEMLRVEEMQNAEFDKKLAQEEVWIRQGIKARRTRNEGRVRALKKLREERRDRREVQGKVNLNIDDASRSGKIVF | not soluble
SFREQDIYLPIANVARIMKNAIPQTGKIAKDAKECVQECVSEFISFITSEASERCHQEKRKTINGEDILFAMSTLGFDSYVEPLKLYLQKFRE | soluble
SFRMLSSSFEDDPFFADSFLAHRESMRNMMRSFSEPLGRDLLSISDGRGRTHNRRERDDGEDSLTATSFSLVPFGRFGGMHADVNPFQTMDRMMANMRSGIQELQRNFGQLSMDPNGHSFCSSSVMTYSKVGDEPPKVFQASTQTRRAPGGVKETRKAMRDSDSGLERMAVGHHIHDRGHVIRKSKNNKTGDEEVNQEFINMNESDAHAFDDEWQNEVLKYKSIGRSGNTGMRSVGHEHPGSRELKRREKIHRNSAIESGRRSNVFVDKLNVKGSPVKITKK | soluble
SGAISGDSLISLASTGKRVSIKDLLDEKDFEIWAINEQTMKLESAKVSRVFMTGKKLVYILKTRLGRTIKATANHRFLTIDGWKRLDELSLKEHIALPRKLESSSLQLSPEIEKLSQSDISWDSIVSITETGVEEVFDLTVPGPHNFVANDIIVHASI | soluble
SGAVTDDEVIRKRLLIDGDGAGDDRRINLLVKSFIKWCNSGSQEEGYSQYQRMLSTLSQCEFSMGKTLLVYDMNLREMENYEKIYKEIECSIAGAHEKIAECKKQILQAKRIRKNRQEYDALAKVIQHHPDRHETLKELEALGKELEHLSHIKESVEDKLELRRKQFHVLLSTIHELQQTLENDEKLSEVEEAQEASMETDPKP | soluble
SGKGGWLLNFLNHAKNQESVENLDKNGAVKAPSSGFKMPLHYPRYTKEDYEEMEEWRLDLLLSEYGLLAFHDNTLHEKRAFAIDTFIWPHHP | soluble
SGKTSQRKQCDCENPSKPCLSTSIPLRMSSYTFKRPVTKITSHLGNEVRYYQWEETFKKPEQACWQKRLQGLQAYSSAGELLSTSDLAKTLKDLTSTDTVASASDTQAASIDITSVPTLESSSHLANMIPEAGPQILCKEFLVTEQDIINQERKVKIARERLAVALIAHKLASEMETVRGSRKANL | soluble
SGRPFVEMYSEIPEIIHMTEGRELVIPCRVTSPNITVTLKKFPLDTLIPDGKRIIWDSRKGFIISNATYKEIGLLTCEATVNGHLYKTNYLTHRQTNTIIDVQISTPRPVKLLRGHTLVLNCTATTPLNTRVQMTWSYPDEKNKRASVRRRIDQSNSHANIFYSVLTIDKMQNKDKGLYTCRVRSGPSFKSVNTSVHIYDKAFITVKHR | soluble
SGRTWREADINYTSGFRNSDRILYSSDWLIYKTTDHYQTFTKIRCAQVINTFDGVADYLQTYHKLPDNYITKSEAQALGWVASKGNLADVAPGKSIGGDIFSNREGKLPGK | soluble
SGVDRVLVKSEAWADNRLPLTEAELALIATPPEDSDMASLQQQRQEQNYFVRLGSLSERLRNHAYEHSLGKLQNARQKAQETLQQLTSVLGLMESVKQGVDQRLGEGQEKLHQMWLSWNQKTPQDAEKDPAKPEQVEARALSMFRDITQQLQSMCVALGASIQGLPSHVREQAQQARSQVNDLQATFSGIHSFQDLSAGVLAQTRERIARAREALDNTVEYVAQNTPAMWLVGPFAPGITEKTPEGK | soluble
SHMRVLVCGGAGYIGSHFVRALLRDTNHSVVIVDSLVGTHGKSDHVETRENVARKLQQSDGPKPPWADRYAALEVGDVRNEDFLNGVFTRHGPIDAVVHMCAFLAVGESVRDPLKYYDNNVVGILRLLQAMLLHKCDKIIFSSSAAIFGNPTMGSVSTNAEPIDINAKKSPESPYGESKLIAERMIRDCAEAYGIKGICLRYFNACGAHEDGDIGEHYQGSTHLIPIILGRVMSDIAPDQRLTIHEDASTDKRMPIFGTDYPTPDGTCVRDYVHVCDLASAHILALDYVEKLGPNDKSKYFSVFNLGTSRGYSVREVIEVARKTTGHPIPVRECGRREGDPAYLVAASDKAREVLGWKPKYDTLEAIMETSWKFQRTHPNGYASQENGTPGGRTTKL | soluble
